# Results taken from article PMC12084609, “Structural insights into small-molecule agonist recognition and activation of complement receptor C3aR” (The EMBO Journal, 2025).
# Changes are numbered by the printed parent chain. “And” between values parts separate entries of the source, which are not always exact repeats. Identical values can stand only once. Like-named read-outs stand apart in the source and are kept apart here.
# Legend:
# Assay type in all cases: cell-based
# [1] = biological target: T1, C3aR Y174^ECL2A (Homo sapiens, UniProt Q16581, Y174A); assay: GloSensor-based cAMP assay, C3aR mutant Y174A; settings: for Mean Diff. of pIC50, WT vs. Y174A: Dunnett's multiple comparisons test, WT minus mutant; for ΔpIC50 ± SE of Diff.: Y174^ECL2A relative to WT C3aR; for cAMP response (% Forskolin): Y174ECL2A
# T1 construct: expressed in transfected cells; host or cells: HEK293T
# T1 sequence (Q16581 1-482 Y174A): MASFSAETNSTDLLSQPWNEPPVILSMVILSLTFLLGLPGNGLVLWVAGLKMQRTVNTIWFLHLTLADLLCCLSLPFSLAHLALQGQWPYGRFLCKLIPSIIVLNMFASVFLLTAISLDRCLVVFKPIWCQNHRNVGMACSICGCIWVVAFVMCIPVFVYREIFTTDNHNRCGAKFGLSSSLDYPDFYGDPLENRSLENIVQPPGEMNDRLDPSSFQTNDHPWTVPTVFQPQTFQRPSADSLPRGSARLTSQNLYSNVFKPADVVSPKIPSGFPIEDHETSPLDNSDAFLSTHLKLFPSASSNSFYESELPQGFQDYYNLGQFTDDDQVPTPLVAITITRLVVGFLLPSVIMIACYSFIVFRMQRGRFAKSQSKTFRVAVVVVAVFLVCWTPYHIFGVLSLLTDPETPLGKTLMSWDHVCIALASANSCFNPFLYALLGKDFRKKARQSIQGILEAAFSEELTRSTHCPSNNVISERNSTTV
# Experimental: (§1) HEK293T cells were seeded on 6-well plates (NEST) and transfected with pGlosensor™-22F plasmids (Promega) and pcDNA3.1 plasmids encoding C3aR or its mutants an with N-terminal FLAG tag. After 48 h, cells were detached with Accutase solution (Sigma-Aldrich) and washed with PBS, and resuspended in assay buffer (CO2-independent medium with 0.5 mg mL^−1D-luciferin). 100,000–200,000 cells were seeded on 96-well white bottom plates (SPL) and incubated at 37 °C for 45 min followed by 45 min incubation at room temperature. After 90 min of incubation, basal luminescence signals were recorded. In total, 25 μl of test ligand with various concentrations and 1 μM Forskolin (Sigma-Aldrich) were treated to the cells and luminescence signals were measured by Tristar 2 LB 942 multimode reader (Berthold). […] Relative luminescence unit (%) was calculated with the signal of wells treated with vehicle as 0% and the signal of wells treated with 1 μM Forskolin as 100% (DiRaddo et al, [2014]). Nonlinear regression was performed using a three-parameter logistic equation.
# [2] = biological target: T2, C3aR L30^1.39A (Homo sapiens, UniProt Q16581, L30A); assay: GloSensor-based cAMP assay, C3aR mutant L30A; settings: for Mean Diff. of pIC50, WT vs. L30A: Dunnett's multiple comparisons test, WT minus mutant; for ΔpIC50 ± SE of Diff.: L30^1.39A relative to WT C3aR; for cAMP response (% Forskolin): L301.39A
# T2 construct: expressed in transfected cells; host or cells: HEK293T
# T2 sequence (Q16581 1-482 L30A): T1 sequence (Q16581 1-482 Y174A) with L30A, A174Y
# Experimental: as §1
# [3] = biological target: T3, C3aR I98^3.28A (Homo sapiens, UniProt Q16581, I98A); assay: GloSensor-based cAMP assay, C3aR mutant I98A; settings: for Mean Diff. of pIC50, WT vs. I98A: Dunnett's multiple comparisons test, WT minus mutant; for ΔpIC50 ± SE of Diff.: I98^3.28A relative to WT C3aR; for cAMP response (% Forskolin): I983.28A
# T3 construct: expressed in transfected cells; host or cells: HEK293T
# T3 sequence (Q16581 1-482 I98A): T1 sequence (Q16581 1-482 Y174A) with I98A, A174Y
# Experimental: as §1
# [4] = Log[C3a (M)] -7, single replicates
# [5] = Log[C3a (M)] -8, single replicates
# [6] = Log[C3a (M)] -9, single replicates
# [7] = Log[C3a (M)] -10, single replicates
# [8] = Log[C3a (M)] -11, single replicates
# [9] = Log[C3a (M)] -12, single replicates
molecule,measurement,setting,value
"Cc1cc(C(c2ccc(Cl)cc2)c2ccc(Cl)cc2)sc1C(=O)N[C@@H](CCCNC(=N)N)C(=O)O [JR14a, reference compound]","Mean Diff. of pIC50, WT vs. Y174A",[1],-0.215
same,IC50,"[1]; IC50, Y174^ECL2A, dose-response plot",1.61 nM
same,remaining activity at 1 µM,"[1]; Y174A, Log[JR14a (M)] -6, single replicates, read-out: cAMP response (% Forskolin)",10.9%
same,remaining activity at 0.1 µM,"[1]; Y174A, Log[JR14a (M)] -7, single replicates, read-out: cAMP response (% Forskolin)",11.8%
same,remaining activity at 0.01 µM,"[1]; Y174A, Log[JR14a (M)] -8, single replicates, read-out: cAMP response (% Forskolin)",40.7%
same,remaining activity at 0.0001 µM,"[1]; Y174A, Log[JR14a (M)] -10, single replicates, read-out: cAMP response (% Forskolin)",95.8%
same,remaining activity at 10 pM,"[1]; Y174A, Log[JR14a (M)] -11, single replicates, read-out: cAMP response (% Forskolin)",106%
same,ΔpIC50 ± SE of Diff.,[1],0.22 ± 0.09
same,decrease in IC50 values vs WT,"[1]; Y174^ECL2 to Ala, relatively mild effect on downstream signaling",< 10 fold
same,IC50,"[1]; pIC50 (Replicate), Y174^ECL2A, individual replicates",3.63 nM and 1.55 nM and 0.871 nM
same,IC50,"[1]; pIC50 ± SEM (Mean), Y174^ECL2A, mean of independent experiments",1.7 nM
same,"Mean Diff. of pIC50, WT vs. L30A",[2],0.012
same,IC50,"[2]; IC50, L30^1.39A, dose-response plot",5.58 nM
same,remaining activity at 1 µM,"[2]; L30A, Log[JR14a (M)] -6, single replicates, read-out: cAMP response (% Forskolin)",12.9%
same,remaining activity at 0.1 µM,"[2]; L30A, Log[JR14a (M)] -7, single replicates, read-out: cAMP response (% Forskolin)",13.4%
same,remaining activity at 0.001 µM,"[2]; L30A, Log[JR14a (M)] -9, single replicates, read-out: cAMP response (% Forskolin)",82.6%
same,remaining activity at 0.0001 µM,"[2]; L30A, Log[JR14a (M)] -10, single replicates, read-out: cAMP response (% Forskolin)",97.9%
same,remaining activity at 10 pM,"[2]; L30A, Log[JR14a (M)] -11, single replicates, read-out: cAMP response (% Forskolin)",98.1%
same,ΔpIC50 ± SE of Diff.,[2],-0.01 ± 0.01
same,IC50,"[2]; pIC50 (Replicate), L30^1.39A, individual replicates",8.91 nM and 6.92 nM
same,IC50,"[2]; pIC50 ± SEM (Mean), L30^1.39A, mean of independent experiments",5.37 nM
same,IC50,[2]; read-out: pIC50 (Replicate) (converted),2.51 nM
same,"Mean Diff. of pIC50, WT vs. I98A",[3],0.356
same,remaining activity at 0.01 µM,"[3]; I98A, Log[JR14a (M)] -8, single replicates, read-out: cAMP response (% Forskolin)",49.1%
same,remaining activity at 0.001 µM,"[3]; I98A, Log[JR14a (M)] -9, single replicates, read-out: cAMP response (% Forskolin)",88.6%
same,remaining activity at 0.0001 µM,"[3]; I98A, Log[JR14a (M)] -10, single replicates, read-out: cAMP response (% Forskolin)",95.5%
same,remaining activity at 10 pM,"[3]; I98A, Log[JR14a (M)] -11, single replicates, read-out: cAMP response (% Forskolin)",93.5%
same,ΔpIC50 ± SE of Diff.,[3],-0.36 ± 0.02
same,IC50,"[3]; IC50, I98^3.28A, dose-response plot",9.13 nM
same,IC50,"[3]; pIC50 (Replicate), I98^3.28A, individual replicates",6.17 nM and 11.5 nM and 9.77 nM
same,IC50,"[3]; pIC50 ± SEM (Mean), I98^3.28A, mean of independent experiments",8.91 nM
"C3a: anaphylatoxin C3a, natural peptide ligand of C3aR (a 77-amino acid peptide), Sigma-Aldrich","Mean Diff. of pIC50, WT vs. Y174A",[1],0.586
same,cAMP response (% Forskolin),[1]; [4],9.91 % Forskolin and 12.64 % Forskolin and 15.55 % Forskolin and 17.18 % Forskolin and 6.28 % Forskolin
same,cAMP response (% Forskolin),[1]; [5],29.94 % Forskolin and 34.61 % Forskolin and 37.29 % Forskolin and 78.77 % Forskolin and 47.80 % Forskolin
same,cAMP response (% Forskolin),[1]; [6],93.29 % Forskolin and 98.24 % Forskolin and 97.28 % Forskolin and 106.07 % Forskolin and 106.88 % Forskolin
same,cAMP response (% Forskolin),[1]; [7],95.65 % Forskolin and 102.82 % Forskolin and 100.47 % Forskolin and 102.58 % Forskolin and 97.30 % Forskolin
same,cAMP response (% Forskolin),[1]; [8],98.42 % Forskolin and 110.81 % Forskolin and 110.05 % Forskolin and 103.42 % Forskolin and 89.46 % Forskolin
same,cAMP response (% Forskolin),[1]; [9],91.57 % Forskolin and 98.11 % Forskolin and 107.79 % Forskolin and 100.25 % Forskolin and 103.20 % Forskolin
same,ΔpIC50 ± SE of Diff.,[1],-0.59 ± 0.09
same,IC50,"[1]; Y174^ECL2A, dose-response plot, read-out: IC50",8.35 nM
same,pIC50 (Replicate),"[1]; Y174^ECL2A, individual replicates",8.26 and 8.28 and 8.32 and 7.39 and 7.92
same,pIC50 ± SEM (Mean),"[1]; Y174^ECL2A, mean of independent experiments",8.04
same,"Mean Diff. of pIC50, WT vs. L30A",[2],-0.019
same,ΔpIC50 ± SE of Diff.,[2],0.019 ± 0.009
same,IC50,"[2]; L30^1.39A, dose-response plot, read-out: IC50",2.77 nM
same,pIC50 (Replicate),"[2]; L30^1.39A, individual replicates",8.56 and 8.70 and 8.57 and 8.44
same,pIC50 ± SEM (Mean),"[2]; L30^1.39A, mean of independent experiments",8.57 ± 0.05 and 8.57
same,cAMP response (% Forskolin),[2]; [4],9.08 % Forskolin and 11.83 % Forskolin and 11.69 % Forskolin and 11.40 % Forskolin
same,cAMP response (% Forskolin),[2]; [5],10.54 % Forskolin and 13.47 % Forskolin and 12.71 % Forskolin and 14.92 % Forskolin
same,cAMP response (% Forskolin),[2]; [6],79.63 % Forskolin and 73.91 % Forskolin and 80.93 % Forskolin and 94.77 % Forskolin
same,cAMP response (% Forskolin),[2]; [7],98.57 % Forskolin and 99.49 % Forskolin and 94.04 % Forskolin and 99.72 % Forskolin
same,cAMP response (% Forskolin),[2]; [8],93.76 % Forskolin and 102.28 % Forskolin and 98.92 % Forskolin (2×)
same,cAMP response (% Forskolin),[2]; [9],93.05 % Forskolin and 98.36 % Forskolin and 95.43 % Forskolin and 98.17 % Forskolin
same,"Mean Diff. of pIC50, WT vs. I98A",[3],0.113
same,ΔpIC50 ± SE of Diff.,[3],-0.11 ± 0.02
same,IC50,"[3]; I98^3.28A, dose-response plot, read-out: IC50",4.07 nM
same,pIC50 (Replicate),"[3]; I98^3.28A, individual replicates",8.38 (2×) and 8.42 and 8.40 and 8.08 and 8.54 and 8.47
same,pIC50 ± SEM (Mean),"[3]; I98^3.28A, mean of independent experiments",8.38 ± 0.05 and 8.38
same,cAMP response (% Forskolin),[3]; [4],12.31 % Forskolin and 10.90 % Forskolin and 9.84 % Forskolin and 8.89 % Forskolin and 11.38 % Forskolin and 5.37 % Forskolin and 7.43 % Forskolin
same,cAMP response (% Forskolin),[3]; [5],27.29 % Forskolin and 21.82 % Forskolin and 20.14 % Forskolin and 14.26 % Forskolin and 42.67 % Forskolin and 12.53 % Forskolin and 15.24 % Forskolin
same,cAMP response (% Forskolin),[3]; [6],88.79 % Forskolin and 95.53 % Forskolin and 90.20 % Forskolin and 95.03 % Forskolin and 96.77 % Forskolin and 78.73 % Forskolin and 85.71 % Forskolin
same,cAMP response (% Forskolin),[3]; [7],99.83 % Forskolin and 101.03 % Forskolin and 99.65 % Forskolin and 94.56 % Forskolin and 95.76 % Forskolin and 97.03 % Forskolin and 93.13 % Forskolin
same,cAMP response (% Forskolin),[3]; [8],97.32 % Forskolin and 101.48 % Forskolin and 99.97 % Forskolin and 96.12 % Forskolin and 97.86 % Forskolin and 93.68 % Forskolin and 92.51 % Forskolin
same,cAMP response (% Forskolin),[3]; [9],95.26 % Forskolin and 98.35 % Forskolin and 96.71 % Forskolin and 98.06 % Forskolin and 93.96 % Forskolin and 97.55 % Forskolin and 101.79 % Forskolin
